From US20220127334A1

How the values were obtained:
[1] = target: trypsin (Examples 7 and 8, source not stated); assay: cell-based or functional assay
[2] = target: Human pancreatic trypsin (Athens Research & Technology, Inc) (human) (UniProt P07477); assay: cell-based or functional assay

IC50 of inhibition of trypsin-induced IL-6 production in BEAS2B cells [1]: 0.4 µg/mL
IC50 of trypsin inhibition (fluorogenic substrate, enzyme activity) [2]: 3 nM
Substance: human UTI (human urine UTI) (from UniProt P02760 206-352)
